Test results taken from patent publication US20200157212A1 (Pfizer, published 2020).
Numbering of substitutions follows the chain as printed.

T1: Rat ROBO2 on cells (rat, UniProt Q7TPD3 22-1469 (mouse entry))
T1 construct: overexpressed on HEK293 cells in flow cytometry; endogenous on rat SVZ neuronal explants in the SVZa assay
T1 chain: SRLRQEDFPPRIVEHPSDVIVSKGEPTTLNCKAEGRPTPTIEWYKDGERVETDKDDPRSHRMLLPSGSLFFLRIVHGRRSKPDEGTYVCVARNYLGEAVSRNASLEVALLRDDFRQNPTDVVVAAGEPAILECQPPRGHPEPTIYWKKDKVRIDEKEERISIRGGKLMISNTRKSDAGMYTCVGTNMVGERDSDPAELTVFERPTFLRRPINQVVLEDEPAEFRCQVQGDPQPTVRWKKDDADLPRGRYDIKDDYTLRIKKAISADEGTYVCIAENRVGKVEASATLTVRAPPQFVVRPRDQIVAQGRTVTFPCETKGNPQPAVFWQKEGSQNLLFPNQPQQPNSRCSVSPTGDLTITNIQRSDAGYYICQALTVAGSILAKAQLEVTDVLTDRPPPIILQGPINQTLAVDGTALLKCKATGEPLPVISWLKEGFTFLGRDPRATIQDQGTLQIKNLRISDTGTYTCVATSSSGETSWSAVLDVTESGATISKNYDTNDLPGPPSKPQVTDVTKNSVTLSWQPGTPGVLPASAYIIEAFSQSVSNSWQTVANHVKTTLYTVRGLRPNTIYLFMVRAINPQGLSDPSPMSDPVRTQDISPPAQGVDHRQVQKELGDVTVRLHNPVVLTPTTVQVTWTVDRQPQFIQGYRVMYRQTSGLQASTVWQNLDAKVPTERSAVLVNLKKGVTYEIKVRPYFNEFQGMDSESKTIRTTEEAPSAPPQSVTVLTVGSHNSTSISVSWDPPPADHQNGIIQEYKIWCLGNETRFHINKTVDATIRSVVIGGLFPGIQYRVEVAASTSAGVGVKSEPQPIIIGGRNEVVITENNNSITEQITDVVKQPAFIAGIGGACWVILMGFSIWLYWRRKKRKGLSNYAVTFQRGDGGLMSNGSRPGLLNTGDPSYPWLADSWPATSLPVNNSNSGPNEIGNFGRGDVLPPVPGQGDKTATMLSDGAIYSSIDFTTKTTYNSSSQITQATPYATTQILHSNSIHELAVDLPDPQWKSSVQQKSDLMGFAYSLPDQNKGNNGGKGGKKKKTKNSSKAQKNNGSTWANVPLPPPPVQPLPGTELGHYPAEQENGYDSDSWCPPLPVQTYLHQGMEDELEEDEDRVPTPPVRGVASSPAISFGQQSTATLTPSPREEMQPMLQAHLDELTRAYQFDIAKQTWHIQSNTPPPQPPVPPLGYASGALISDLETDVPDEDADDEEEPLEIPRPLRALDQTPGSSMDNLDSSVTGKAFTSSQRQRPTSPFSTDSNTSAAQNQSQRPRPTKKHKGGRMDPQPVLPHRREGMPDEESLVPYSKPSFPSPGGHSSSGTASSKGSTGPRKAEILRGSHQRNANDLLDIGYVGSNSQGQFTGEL

B1: 93H2 (antibody, human IgG1, kappa, V domains shown)
VH: EVQLVQSGAEVKKPGASVKVSCKASGYTFTGYYMHWVRQAPGQGLEWMGWINPNSGATNFPQKFQGRVTMTRDTSITTAYMDLSRLRSDDTAVYYCARESGDDAFDIWGQGTMVTVSS
VL: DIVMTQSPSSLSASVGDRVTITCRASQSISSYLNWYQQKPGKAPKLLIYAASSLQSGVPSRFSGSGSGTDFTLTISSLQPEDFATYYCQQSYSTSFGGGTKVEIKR
notes: also called parental 93H2; 93H2 mAb
B2: Abcs25 (antibody, human IgG1, kappa, V domains shown)
VH: B1 VH with N54K, S55D, A57D, N59E
VL: DIVMTQSPSSLSASVGDRVTITCRASQSISSYLNWYQQKPGKAPKLLIYAASSLQSGVPSRFSGSGSGTDFTLTISSLQPEDFATYYCQQSVGLSFGGGTKVEIKR
notes: chain-shuffled IgG
B3: Abcs35 (antibody, human IgG1, kappa)
heavy: EVQLVQSGAEVKKPGASVKVSCKASGYTFTGYYMHWVRQAPGQGLEWMGWINPKNGDTEFPQKFQGRVTMTRDTSITTAYMDLSRLRSDDTAVYYCARESGDDAFDIWGQGTMVTVSSASTKGPSVFPLAPSSKSTSGGTAALGCLVKDYFPEPVTVSWNSGALTSGVHTFPAVLQSSGLYSLSSVVTVPSSSLGTQTYICNVNHKPSNTKVDKKVEPKSCDKTHTCPPCPAPEAAGAPSVFLFPPKPKDTLMISRTPEVTCVVVDVSHEDPEVKFNWYVDGVEVHNAKTKPREEQYNSTYRVVSVLTVLHQDWLNGKEYKCKVSNKALPAPIEKTISKAKGQPREPQVYTLPPSREEMTKNQVSLTCLVKGFYPSDIAVEWESNGQPENNYKTTPPVLDSDGSFFLYSKLTVDKSRWQQGNVFSCSVMHEALHNHYTQKSLSLSPGK
light: DIVMTQSPSSLSASVGDRVTITCRASQSISSYLNWYQQKPGKAPKLLIYAASSLQSGVPSRFSGSGSGTDFTLTISSLQPEDFATYYCQQSVGLFFGGGTKVEIKRTVAAPSVFIFPPSDEQLKSGTASVVCLLNNFYPREAKVQWKVDNALQSGNSQESVTEQDSKDSTYSLSSTLTLSKADYEKHKVYACEVTHQGLSSPVTKSFNRGEC
notes: fully human IgG1; VH of Ab96 with VL of Ab123

Biological target: T1, Rat ROBO2 on cells
Assay: flow cytometry, HEK293 cells, average of n = 3
Method: Binding of the antibodies was detected using a secondary fluorochrome conjugated anti-human IgG F(ab′)₂ antibody and samples were analyzed on a Fortessa cytometer (BD Biosciences). The fold ROBO2 selectivity was calculated as the geometric mean fluorescence intensity (Geo MFI) with ROBO2 cells/Geo MFI with ROBO1 cells. A fold change higher than 3 was considered to be ROBO2 specific (Table 2, Fold Selectivity). Some affinity matured clones had increased ROBO1 reactivity, for example Abcs 55, CTI-R2-10 and CTIR2-13.
Based upon several criteria, Abcs25 and Abcs35 were selected for further characterization. Using flow cytometry, improvement in the binding EC₅₀ to human ROBO2 relative to the parental 93H2 was evaluated. Starting at 6.7 nM, 11-point, 3-fold dilution series were made for each antibody and used to stain HEK293 overexpressing human ROBO2 as described above for the ROBO2 fold selectivity (Example 2). […] In addition to measuring improved binding to human ROBO2, it was important to ensure that high affinity binding to both cynomolgus monkey ROBO2 and rat ROBO2 was maintained. Using HEK293 cells overexpressing either cynomolgus monkey ROBO2 or rat ROBO2, the relative dose-dependent binding of 93H2, Abcs25 and Abcs35 was evaluated as described above. High affinity binding to both cynomolgus monkey and rat ROBO2 was maintained in Abcs25 and Abcs35 (Table 4). […] Briefly, Abcs35 was immobilized to 300 resonance units (RU) on a CM5 chip. Association of ROBO2 Ig1-Ig2-His (ROBO2) was measured over 5 minutes and dissociation was followed for a period of 10 minutes.

Row | EC50 [nM] | Binder
1 | 1.2 | B1
2 | 0.062 | B2

Row | Binder | EC50 [nM]
3 | B3 | 0.048
